Experimental data: publication PMC7846742

What was measured:
[1] = biological target: AviTag-His6-OAZ-GSY-SPM-Ctag (wt, with C175A) (human | Neisseria meningitidis serogroup B (strain MC58)) (UniProt Q9JYV5); test: SPR; Biacore T200; biotinylated AviTag-OAZ-GSY-SPM variants immobilised with the Biotin CAPture Kit, ODC flowed over; HBS with 2 mM TCEP and 0.02 mM PLP; 25 °C; 1:1 binding model
[2] = biological target: His6-OAZ-GSY-SPM-Ctag (human | Neisseria meningitidis serogroup B (strain MC58)) (UniProt Q9JYV5); test: cross-linking; NeissLock: Ca2+-induced aspartic anhydride on OAZ reacts with the docked partner; purified proteins mixed at 10 µM each or as indicated (AZI 2.5 µM each; Fig. 4b 0.5 µM each; 30 µM ODC with 10 µM OAZ-Y-SPM), 37 °C, HBS pH 7.4 with 2 mM TCEP, 10 mM CaCl2 unless varied (pH 6.5-8.5, 0.5-10 mM Ca2+, TBS, lyophilised probe); SDS-PAGE with Coomassie, intact ESI-MS, tryptic LC-MS/MS

Row | Binder | Kd [1] | coupling yield after 2 h, lyophilized OAZ-GSY-SPM [2] | coupling yield after 2 h, untreated control [2] | coupling yield at 0.5 mM Ca2+ compared to 10 mM Ca2+ after 2 h [2] | coupling yield in TBS compared to HBS after 2 h [2] | half-time of the conjugation reaction at pH 7.0 [2] | conjugation compared to wild-type ODC [2]
1 | His6-ODC-Ctag (human Ornithine Decarboxylase) (enzyme) NNFGNEEFDCHFLDEGFTAKDILDQKINEVSSSDDKDAFYVADLGDILKKHLRWLKALPRVTPFYAVKCNDSKAIVKTLAATGTGFDCASKTEIQLVQSLGVPPERIIYANPCKQVSQIKYAANNGVQMMTFDSEVELMKVARAHPKAKLVLRIATDDSKAVCRLSVKFGATLRTSRLLLERAKELNIDVVGVSFHVGSGCTDPETFVQAISDARCVFDMGAEVGFSMYLLDIGGGFPGSEDVKLKFEEITGVINPALDKYFPSDSGVRIIAEPGRYYVASAFTLAVNIIAKKIVLKEQTGSDDEDESSEQTFMYYVNDGVYGSFNCILYDHAHVKPLLQKRPKPDEKYYSSSIWGPTCDGLDRIVERCDLPEMHVGDWMLFENMGAYTVAAASTFNGFQRPTIYYVMSGPAWQLMQQFQ | 0.12 µM | 51% | 48% | 78% | 95% | < 2 min | 
2 | ODC ΔN ΔC 4KR with K92 re-introduced (enzyme) DCHFLDEGFTAKDILDQKINEVSSSDDKDAFYVADLGDILKKHLRWLKALPRVTPFYAVKCNDSRAIVRTLAATGTGFDCASKTEIQLVQSLGVPPERIIYANPCKQVSQIRYAANNGVQMMTFDSEVELMKVARAHPKAKLVLRIATDDSKAVCRLSVKFGATLRTSRLLLERAKELNIDVVGVSFHVGSGCTDPETFVQAISDARCVFDMGAEVGFSMYLLDIGGGFPGSEDVKLKFEEITGVINPALDKYFPSDSGVRIIAEPGRYYVASAFTLAVNIIAKKIVLKEQTGSDDEDESSEQTFMYYVNDGVYGSFNCILYDHAHVKPLLQKRPKPDEKYYSSSIWGPTCDGLDRIVERCDLPEMHVGDWMLFENMGAYTVAAASTFNGFQRPTIYYVMSGPAWQLMQQFQ |  |  |  |  |  |  | 89%
